Reference: patent publication US20100104554

Key:
[1] = molecular target: T1, recombinant human cathepsin S propeptide (residues 17-113) with N-terminal hexahistidine tag, expressed from pQE30
T1 chain: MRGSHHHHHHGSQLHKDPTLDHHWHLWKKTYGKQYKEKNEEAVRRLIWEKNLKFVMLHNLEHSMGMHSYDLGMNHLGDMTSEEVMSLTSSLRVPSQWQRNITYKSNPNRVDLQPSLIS

[2] = molecular target: Fc-control protein

B1: human cathepsin S (Calbiochem) (protein)
chain: LPDSVDWREKGCVTEVKYQGSCGACWAFSAVGALEAQLKLKTGKLVSLSAQNLVDCSTEKYGNKGCNGGFMTTAFQYIIDNKGIDSDASYPYKAMDLKCQYDSKYRAATCSKYTELPYGREDVLKEAVANKGPVSVGVDARHPSFFLYRSGVYYEPSCTQNVNHGVLVVGYGDLNGKEYWLVKNSWGHNFGEEGYIRMARNKGNHCGIASFPSYPEI
[1]
  elastinolytic turnover of Elastin-DQ by CatS over a 60 minute incubation: the inventors were able to demonstrate inhibition of this activity
  hydrolysis of Cbz-Val-Val-Arg-AMC by CatS (fluorometric assay), rCatSPP 0 nM to 500 nM: the dose-dependent inhibition of CatS activity was observed
[2]
  hydrolysis of Z-VVR-AMC by CatS (fluorometric assay): The Fc-control protein (200 nM) had no discernable effects on CatS activity
